Reference: patent US20080287363A1 (LABORATOIRES SERONO, published 2008)

Biological target: recombinant Δ6 evasin-4 (truncated, N-terminally 6His tagged evasin-4, amino acids 24-127), purified (Rhipicephalus sanguineus)
Assay: SPR (Biacore 3000), Δ6 evasin-4 immobilized on CM4 chip, chemokine injected

Binder | binding result
CCL13/MCP-4 (ligand) not shown | no binding (tested: 0.1 µg/ml)
XCL1/lymphotactin (ligand) VGSEVSDKRTCVSLTTQRLPVSRIKTYTITEGSLRAVIFITKRGLKVCADPQATWVRDVVRSMDRKSNTRNNMIQTKPTGTQQSTNTAVTLTG | no binding (tested: 0.1 µg/ml)
